From US20210292393A1 (published 2021)

B1: antibody 423 (antibody, V domains shown)
VH: EVQLVESGGGLIQPGGSLRISCAASGFTVRNNHMSWVRQAPGKGLEWVSVFYRGGTTYYADSVKGRFTISRDDSKNTVDLQMNSLRGEDTAVYYCARGLSVAASGYFDCWGQGTLVTVSS
VL: DIQMTQSPSSVSASVGDTVTITCRANQGISSWLAWYQQVPGKAPELLIYATSTLQSGVPSRFSGSGSGTDFTLTISSLQPEDFATYYCQQANSFPFTFGPGTKVDIK
B2: antibody 537 (antibody, V domains shown)
VH: QVQLQQWGAGLLKPSETLSLTCAVYGGSFSGYYWSWIRQPPGKGLEWIGEINHSGSTNYNPSLKSRVTISVDTSKNQFSLKLSSVTAADTAVYYCARGLYYDMGGGFDYWGQGTLVTVSS
VL: not shown
B3: antibody 543 (antibody, V domains shown)
VH: EVQLVESGGGLVQPGRSLRLSCAASGFTFHDYAMHWVRQAPGKGLEWVSGISWNSGSIGYADSVKGRFTISRDNAKNSLYLQMNSLRAEDTALYYCAKDTFGSSSWYRGDSYYYYGMDVWGQGTTVTVSS
VL: QSALTQPASVSGSPGQSITISCTGTSSDVGGYNYVSWYQQHPGKAPKLMIYEVSNRPSGVSNRFSGSKSGNTASLTISGLQAEDEADYYCSSYTSSSTQRYVVFGGGTKLTVL
B4: antibody 421 (antibody, V domains shown)
VH: QVQLVESGGGVVQPGRSLRLSCAASGFTFSTYAMHWVRQAPGKGLEWVAVISYDGSNKYYADSVKGRFTISRDNSKNTLYLQMNSLRAEDTAVYYCARGYGSGSYYPLYLYWGQGTLVTVSS
VL: not shown
B5: antibody 422 (antibody, V domains shown)
VH: QVQLVQSGSELKKPGASVKVSCKASGYTFTSYAMNWVRQAPGQGLEWMGWINTNTGNPTYAQGFTGRFVFSLDTSVSTTYLQISSLKAEDTAVYYCARVIGVVTYYYYGMDVWGQGTTVTVSS
VL: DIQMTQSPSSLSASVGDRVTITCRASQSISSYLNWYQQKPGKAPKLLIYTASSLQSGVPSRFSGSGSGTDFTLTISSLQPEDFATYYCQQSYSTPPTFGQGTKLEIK
B6: antibody 545 (antibody, V domains shown)
VH: QVQLVQSGSELKKPGASVKVSCKASGYTFTSYAMNWVRQAPGQGLEWMGWINTNTGNPTYAQGFTGRFVFSLDTSVSTAYLQISVLKAEDTGVYYCARDHELPNSSSWFGHFEYWGQGTLVTVSS
VL: SYELTQPPSVSVSPGQTARITCSGDALPKQYAYWYQQKAGQAPVLVIYKDSERRSGIPERFSGSSSGTTVTLTISGVQAEDEADYYCQSADSSGTSVVFGGGTKLTVL
B7: antibody 536 (antibody, V domains shown)
VH: QVQLVESGGGVVQPGRSLRLSCAASGFTFSSYVMHWVRQAPGKGLEWVALISYDGSNKYYADSVKGRFTISRDNSKNTLYLQMNSLRAEDTAVYYCARGGHIRVGRYFDWLISYFDYWGQGTLVTVSS
VL: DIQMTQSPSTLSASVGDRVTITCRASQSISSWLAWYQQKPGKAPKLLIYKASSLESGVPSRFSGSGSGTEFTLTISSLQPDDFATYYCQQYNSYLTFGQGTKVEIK
B8: antibody 533 (antibody, V domains shown)
VH: GVQLVESGGVVVQPGGSLRLSCAASGFSFDDYTMHWVRQAPGKGLEWVSLVSWDGGTTYYTDSVKGRFTISRDNSKNSLYLQMNSLRTEDTALYFCAKDSGRIVPAATFDYWGQGTLVTVSS
VL: DIQMTQSSSSLSASVGDRVTITCRASQDISNYLAWFQQKPGKAPKSLIYAASSLQSGVPSKFSGSGSGTDFTLTISSLQPEDFATYYCQQYYTYPLTFGGGTKVEIK
B9: antibody 434 (antibody, V domains shown)
VH: QVQLVQSGAEVKKPGASVQVSCKASGYTFSDYYIFWVRQAPGQGLEWMGCINPKSGGAIYAQRFQGRVTMTRDTSFNTAYMEMNRLGSDDTAVYYCVTRGPPDIAASGFAWHLDVWGQGTTVTVSS
VL: DIVMTQSPLSLPVTPGEPASISCRSSQSLLSSNGYNYLEWYLQKPGQSPQLLMYLGSNRASGVPDRFSGSGSGTDFTLKINRVEAEDVGVYYCMQALQTPLTFGGGTKVEIK
B10: antibody 547 (antibody, V domains shown)
VH: QVHLVESGGGVVQPGRSLRLSCAASGFALSSYAMHWVRQPPGKGLEWVALISYDGSVKKYADSVKGRITVSGDNSRNTLHLQINSLRADDTAVYYCVRGGVSGPNSFDLWGHGTMVTVSS
VL: DVVLTQSPLSLPVTLGQPASISCRSSQSLEYSVGNTYVNWFQQRPGQSPRRLIYKVSNRDSGVPDRFSGSGSGTDFTLQISRVEADDVGIYYCMQGTHWPVTFGQGTKVEIK
B11: antibody 385 (antibody, V domains shown)
VH: QVQLVESGGGVVQPGRSLRLSCAASGFTFSSYAIHWVRQAPGKGLEWVAVISYDGSNKYYADSVKGRFTISRDNSKNTLYLQMNSLRAEDTAVYYCARPRSGSYWGAFDIWGQGTMVTVSS
VL: QSVLTQPPSVSGAPGQRVTISCTGSSSNIGARYDVHWYQQLPGTAPKLLIYGNSNRPSGVPDRFSGSKSGTSASLAITGLQAEDEADYYCQSYDSSLRGVFGGGTKLTVL
B12: antibody 548 (antibody, V domains shown)
VH: QVQLVESGGGVVQPGRSLRLSCAASGFTFSSYAMHWVRQAPGKGLEWVAVISYDGSNKYYADSVKGRFTISRDNSKNTLYLQMNNLRAEDTAVYYCAKSGSGSYLSAFDIWGQGTMVTVSS
VL: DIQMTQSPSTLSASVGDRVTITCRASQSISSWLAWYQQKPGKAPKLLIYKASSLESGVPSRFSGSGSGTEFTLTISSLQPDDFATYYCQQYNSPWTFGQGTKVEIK
B13: antibody 409 (antibody, V domains shown)
VH: QVTLRESGPALVKPTQTLTLTCTFSGFSLSTSGMCVSWIRQPPGKALEWLALIDWDDDKYYSTSLKTRLTISKDTSKNQVVLTMTNMDPVDTATYYCARTTYYYVSGRRAEFDPWGQGTLVTVSS
VL: NFMLTQPHSVSESPGKTVTISCTGSSGSIASNYVQWYQQRPGSAPTTVIYEDNQRPSGVPDRFSGSIDSSSNSASLTISGLKTEDEADYYCQSYDSSNQGVFGGGTKLTVL
B14: antibody 395 (antibody, V domains shown)
VH: QVQLVQSGSELKKPGASVKLSCQASGYTFSNHAMNWVRQAPGQGLEWMGWINTNTGNPTYAQGFTGRFVFSLDTSVGTAYLHISSLKAEDTAFYYCARASARPGVATNLDFWGQGTLVVVSS
VL: DIQMTQSPSSLSASVGDRVTITCRTSQNIDNYLNWYQQKPGKAPNLLIYAASRLHSGVPSRFSGSGSGTDFTLIISSLQPEDLATYYCQQSYSNPLTFGPGTKVDIR
B15: antibody 546 (antibody, V domains shown)
VH: QVQLVESGGGVVQPGRSLRLSCAASGFTFSSYGMHWVRQAPGKGLEWVAVIWYDGSNKYYADSVKGRFTISRDNSKNTLYLQMNSLRAEDTAVYYCARNCGGDCVAGDGFDYWGQGTLVTVSS
VL: DIQMTQSPSSLSASVGDRVTITCRASQSISSYLNWYQQKPGKAPNLLIYAASSLQSGVPSRFSGSGSGTDFTLTISSLQPEDFATYYCQQSYSALTWTFGQGTKVEIK
B16: antibody 431 (antibody, V domains shown)
VH: QVQLVESGGGVVQPGRSLRLSCAASGFTFSSYAMHWVRQAPGKGLEWLAVISYDGSNKYYADSVKGRFTISRDNSKNTLYLQMNSLRAEDTAVYYCARSFRGGYYYGMDVWGQGTTVTVSS
VL: DIQLTQSPSFLSASVGDRVTITCRASQGISSYLAWYQQKPGKAPKLLIYAASTLQSGVPSRFSGSGSGTEFTLTISSLQPEDFATYYCQQLNSYPLFTFGPGTKVDIK
B17: antibody 396 (antibody, V domains shown)
VH: QVQLQQWGAGLLKPSETLSLTCAVYGGSFSGYYWSWIRQPPGKGLEWIGEIIHSGSTNYNPSLKSRVTISVDTSKNQFSLKLSSVTAADTAVYYSARRTGLLWFREGSYYFDYWGQGTLVTVSS
VL: DIQMTQSPSSLSASVGDRVTITCRASQGIRNDLGWYQQKPGKAPKRLIYAASSLQSGVPSRFSGSGSGTEFTLTISSLQPEDFATYYCLQHNSYPLTFGGGTKVEIK
B18: antibody 412 (antibody, V domains shown)
VH: QVQLVQSGAEVKKPGASVKVSCKASGYTFTSYGISWVRQAPGQGLEWMGWISAYNGNTNYAQKLQGRVTMTTDTSTSTAYMELRSLRSDDTAVYYCARVTVEAIFGVVILPLKNWFDPWGQGTLVTVSS
VL: QSVLTQPPSVSGAPGQRVTISCTGSSSNIGAGYDVHWYQQLPGTAPKLLIYGNSNRPSGVPDRFSGSKSGTSASLAITGLQAEDEADYYCQSYDSSLTLYVFGTGTKVTVL
B19: antibody 404 (antibody, V domains shown)
VH: QVQLVESGGGVVQPGRSLRLSCAASGFTFSSYGMHWVRQAPGKGLEWVAVIWYDGSNKYYADSVKGRFTISRDNSKNTLYLQMNSLRAEDTAVYYCARLAVDISFDGSDGMDVWGQGTTVTVSS
VL: SYELTQPPSVSVSPGQTARITCSGDALPKKYAYWYQQKSGQAPVLVIYEDSKRPSGIPERFSGSSSGTMATLTISGAQVEDEADYYCYSTDSSGKGVFGTGTKVTVL
B20: antibody 392 (antibody, V domains shown)
VH: QVQLQESGPGLVKPSGTLSLTCAVSGGSISSSNWWSWVRQPPGKGLEWIGEIYHSGSTNYNPSLKSRVTISVDKSKNQFSLKLSSVTAADTAVYYCARGWRATLYGMDVWGQGTTVTVSS
VL: QSALTQPASVSGSPGQSITISCTGTSSDVGSYNLVSWYQQHPGKAPKLMIYEVSKRPSGVSNRFSGSKSGNTASLTISGLQAEDEADYYCCSYAGSSTWVFGGGTKLTVL
B21: antibody 405 (antibody, V domains shown)
VH: not shown
VL: QSALTQPRSVSGSPGQSVTISCTGTSSDVGGYNYVSWYQQHPGKAPKLMIYDVSKRPSGVPDRFSGSKSGNTASLTISGLQAEDEADYYCCSYAGSYNVVFGGGTKLTVL
B22: antibody 527 (antibody, V domains shown)
VH: QLQLQESGPGLVKPSETLSLTCTVSGGSISSSSYYWGWIRQPPGKGLEWIGSIYYSGSTYYNPSLKSRVTISVDTSKNQFSLKLSSVTAADTAMYYCASHVVVIASSYWCFDLWGRGTLVTVSS
VL: QSALTQPASVSGSPGQSITISCTGTSSDVGGYNYVSWYQQHPGKAPKLMIYDVSNRPSGVSNRFSGSKSGNTASLTISGLQAEDEADYYCSSYTSISTWVFGGGTKLTVL
B23: antibody 407 (antibody, V domains shown)
VH: QVQLVESGGGVVQPGRSLRLSCAASGFTFSSYGMHWVRQAPGKGLEWVAVISYDGSNKYYADSVKGRFTISRDNSKNTLYLQMNSLRAEDTAVYYCAKCGWDYDFWVGQGYGMDVWGQGTTVTVSS
VL: not shown

What was measured:
[1] = biological target: SARS-CoV spike protein (full length spike, trimeric, conjugated to beads) (SARS-CoV, UniProt P59594 14-1190)
[2] = biological target: SARS-CoV-2 full length spike protein (wild-type), conjugated to optically encoded beads (SARS-CoV-2, UniProt P0DTC2 14-1208)
[3] = biological target: SARS-CoV spike protein (full length, trimeric) (SARS-CoV, UniProt P59594 14-1190)

Binder | median fluorescence fold over isotype control [1] [fold over isotype control] | median fluorescence fold over isotype [2] [fold over isotype] | also measured
B1 | 1.23 | – | –
B2 | – | 787 | –
B3 | – | 802 | –
B4 | 1.19 | – | –
B5 | 1.19 | – | –
B6 | – | 939 | –
B7 | – | 643 | –
B8 | – | 23.4 | –
B9 | – | – | fold over isotype control (median fluorescence) [3]: 1.36 fold over isotype
B10 | – | 606 | –
B11 | 59.6 | – | –
B12 | – | 642 | –
B13 | 1.03 | – | –
B14 | 1.16 | – | –
B15 | – | 1160 | –
B16 | 49.9 | – | –
B17 | 1.36 | – | –
B18 | 1.09 | – | –
B19 | 1.04 | – | –
B20 | 1.08 | – | –
B21 | 80.9 | – | –
B22 | – | 148 | –
B23 | 1.07 | – | –
